Results: IntAct's records for PubMed 35512704

B1: Speckle-type POZ protein (Homo sapiens), O43791 (parent)
chain: MSRVPSPPPPAEMSSGPVAESWCYTQIKVVKFSYMWTINNFSFCREEMGEVIKSSTFSSGANDKLKWCLRVNPKGLDEESKDYLSLYLLLVSCPKSEVRAKFKFSILNAKGEETKAMESQRAYRFVQGKDWGFKKFIRRDFLLDEANGLLPDDKLTLFCEVSVVQDSVNISGQNTMNMVKVPECRLADELGGLWENSRFTDCCLCVAGQEFQAHKAILAARSPVFSAMFEHEMEESKKNRVEINDVEPEVFKEMMCFIYTGKAPNLDKMADDLLAAADKYALERLKVMCEDALCSNLSVENAAEILILADLHSADQLKTQAVDFINYHASDVLETSGWKSMVVSHPHLVAEAYRSLASAQCPFLGPPRKRLKQS
partner: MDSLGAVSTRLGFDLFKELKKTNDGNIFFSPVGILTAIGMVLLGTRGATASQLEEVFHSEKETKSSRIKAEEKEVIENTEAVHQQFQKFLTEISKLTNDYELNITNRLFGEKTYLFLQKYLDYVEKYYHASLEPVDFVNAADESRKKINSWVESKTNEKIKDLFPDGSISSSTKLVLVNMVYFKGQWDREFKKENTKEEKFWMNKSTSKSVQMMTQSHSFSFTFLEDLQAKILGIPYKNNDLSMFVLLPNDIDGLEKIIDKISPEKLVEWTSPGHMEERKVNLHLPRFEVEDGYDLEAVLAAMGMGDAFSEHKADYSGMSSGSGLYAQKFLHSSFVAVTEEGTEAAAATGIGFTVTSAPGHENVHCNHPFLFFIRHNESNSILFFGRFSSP
B2: Speckle-type POZ protein (Homo sapiens), O43791 (parent)
chain: B1 chain
partner: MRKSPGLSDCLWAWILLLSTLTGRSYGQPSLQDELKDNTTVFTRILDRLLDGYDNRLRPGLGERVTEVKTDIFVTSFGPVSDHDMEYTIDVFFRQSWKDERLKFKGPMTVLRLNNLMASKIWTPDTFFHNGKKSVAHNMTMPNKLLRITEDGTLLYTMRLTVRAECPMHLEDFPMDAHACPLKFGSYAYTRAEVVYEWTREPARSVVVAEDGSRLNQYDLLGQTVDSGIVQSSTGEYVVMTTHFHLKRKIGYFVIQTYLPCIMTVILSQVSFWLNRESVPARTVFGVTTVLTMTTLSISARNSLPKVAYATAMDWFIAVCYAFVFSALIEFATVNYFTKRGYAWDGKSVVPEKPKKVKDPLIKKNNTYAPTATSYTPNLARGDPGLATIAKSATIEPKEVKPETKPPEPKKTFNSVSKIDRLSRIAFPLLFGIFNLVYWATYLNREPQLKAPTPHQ
B3: Speckle-type POZ protein (Homo sapiens), O43791 (parent)
chain: B1 chain
partner: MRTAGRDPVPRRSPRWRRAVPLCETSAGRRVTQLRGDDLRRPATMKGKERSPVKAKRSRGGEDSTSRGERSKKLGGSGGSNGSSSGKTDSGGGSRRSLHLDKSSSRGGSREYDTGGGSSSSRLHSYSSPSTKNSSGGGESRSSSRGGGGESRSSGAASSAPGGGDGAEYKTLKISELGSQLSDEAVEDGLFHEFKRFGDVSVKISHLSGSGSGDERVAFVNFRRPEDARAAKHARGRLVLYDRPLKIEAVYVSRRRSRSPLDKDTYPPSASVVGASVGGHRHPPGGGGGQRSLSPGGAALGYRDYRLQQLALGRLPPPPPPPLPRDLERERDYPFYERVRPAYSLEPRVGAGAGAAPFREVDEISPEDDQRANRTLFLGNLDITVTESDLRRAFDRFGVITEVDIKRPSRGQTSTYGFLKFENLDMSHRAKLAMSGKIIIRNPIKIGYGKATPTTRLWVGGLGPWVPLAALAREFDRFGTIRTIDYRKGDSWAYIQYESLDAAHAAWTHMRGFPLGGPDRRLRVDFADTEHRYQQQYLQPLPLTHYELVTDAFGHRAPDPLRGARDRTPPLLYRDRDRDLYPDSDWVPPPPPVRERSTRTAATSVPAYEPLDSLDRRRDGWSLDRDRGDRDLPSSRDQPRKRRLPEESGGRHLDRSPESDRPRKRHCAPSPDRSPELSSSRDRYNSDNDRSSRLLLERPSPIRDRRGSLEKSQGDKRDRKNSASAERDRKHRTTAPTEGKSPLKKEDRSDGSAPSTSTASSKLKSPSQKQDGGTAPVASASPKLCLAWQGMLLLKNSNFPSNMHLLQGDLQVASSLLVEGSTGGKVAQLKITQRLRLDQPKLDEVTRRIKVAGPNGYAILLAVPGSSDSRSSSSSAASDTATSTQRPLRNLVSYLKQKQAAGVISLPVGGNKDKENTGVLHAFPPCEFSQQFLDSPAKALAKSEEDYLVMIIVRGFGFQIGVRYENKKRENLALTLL
B4: Speckle-type POZ protein (Homo sapiens), O43791 (parent)
chain: B1 chain
partner: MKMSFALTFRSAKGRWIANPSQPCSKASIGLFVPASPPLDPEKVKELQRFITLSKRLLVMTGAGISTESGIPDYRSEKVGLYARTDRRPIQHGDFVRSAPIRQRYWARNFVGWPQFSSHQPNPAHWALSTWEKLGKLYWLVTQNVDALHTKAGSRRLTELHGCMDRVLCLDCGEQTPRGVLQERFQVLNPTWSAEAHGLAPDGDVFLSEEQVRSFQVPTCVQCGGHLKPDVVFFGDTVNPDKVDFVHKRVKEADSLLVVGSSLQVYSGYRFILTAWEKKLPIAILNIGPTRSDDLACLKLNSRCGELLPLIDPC

Variants of: B1
Settings: with spb13_human SERPINB13, Q9UIV8

| Variant | effect of a mutation on the interaction |
| --- | --- |
| F133L | with no effect |

Variants of: B1
Settings: with spb13_human SERPINB13, Q9UIV8
Remark: another data set of the same source

| Variant | effect of a mutation on the interaction |
| --- | --- |
| F133V | with no effect |

Variants of: B1
Settings: with spb13_human SERPINB13, Q9UIV8
Remark: another data set of the same source

| Variant | effect of a mutation on the interaction |
| --- | --- |
| Y87C | with no effect |

Variants of: B1
Settings: with spb13_human SERPINB13, Q9UIV8
Remark: another data set of the same source

| Variant | effect of a mutation on the interaction |
| --- | --- |
| F102C | with no effect |

Variants of: B2
Settings: with gbra1_human GABRA1, P14867

| Variant | effect of a mutation on the interaction |
| --- | --- |
| Y87C | with no effect |

Variants of: B3
Settings: with rbm15_human RBM15, Q96T37

| Variant | effect of a mutation on the interaction |
| --- | --- |
| F133V | with no effect |

Variants of: B3
Settings: with rbm15_human RBM15, Q96T37
Remark: another data set of the same source

| Variant | effect of a mutation on the interaction |
| --- | --- |
| F133L | with no effect |

Variants of: B4
Settings: with sir4_human SIRT4, Q9Y6E7

| Variant | effect of a mutation on the interaction |
| --- | --- |
| Y87C | with no effect |

Variants of: B4
Settings: with sir4_human SIRT4, Q9Y6E7
Remark: another data set of the same source

| Variant | effect of a mutation on the interaction |
| --- | --- |
| F133V | with no effect |

Variants of: B4
Settings: with sir4_human SIRT4, Q9Y6E7
Remark: another data set of the same source

| Variant | effect of a mutation on the interaction |
| --- | --- |
| F133L | with no effect |

Variants of: B4
Settings: with sir4_human SIRT4, Q9Y6E7
Remark: another data set of the same source

| Variant | effect of a mutation on the interaction |
| --- | --- |
| F102C | with no effect |
